Source: patent US20260043020A1, “BINDING MEMBERS WITH ALTERED DIVERSITY SCAFFOLD DOMAINS” (priority 2016, published 2026)
Numbering of substitutions follows the chain as printed. Blank lines part the entries; values can stand above or below the binder they belong to.

Assays:
trypsin [1] = test: TRF ELISA, Fab on biotinylated trypsin
trypsin [2] = test: phage TRF ELISA; GlyAla (Pro3Gly, Arg4Ala) mutant against the clone
trypsin [3] = test: monoclonal phage TRF ELISA

TRF signal for 0.6 ug/mL Fab (trypsin [1]): 2390
TRF signal for 2.4 ug/mL Fab (trypsin [1]): 16600
TRF signal for 10 ug/mL Fab (trypsin [1]): 55600
B1: KB_A01 Fab (Fab, V domains shown)
VH: EVQLVESGGGLVRPGGSLRLSCAASGFTFSSYAMSWVRQAPGKGLEWVSAISGSGGSTYYADSVKGRFTISRDNTKNSLYLQMTSLRADDTAFYYCVKDFGPGYGTGWFDYWGPGTLVTVSS
VL: YLNWYQQKPGKAPKLLIYAAEVCPRILMRCKQDSDCLAGCVCGPNGFCGGTSGVPSRFSGSRSGTEFTLTISSLQPEDFATYYCQKVDDYPLTFGGGTKVEIKR

% reduction in binding signal (trypsin [2]): 100%
trypsin binding signal (FU) (trypsin [3]): 121000 FU
B2: KB_A05 (scFv, V domains shown)
VH: B1 VH
VL: AVNWYQQLPGKAPKLLIYAADKCPRILMRCKQDSDCLAGCVCGPNGFCGGGSGIPERFSGSKSGTSASLAISGLRSEDEADYYCATWDDNLNGVVFGGGTKLTVLG

TRF signal for 0.6 ug/mL Fab (trypsin [1]): 108000
TRF signal for 2.4 ug/mL Fab (trypsin [1]): 212000
TRF signal for 10 ug/mL Fab (trypsin [1]): 242000
B3: KB_A06 Fab (Fab, V domains shown)
VH: B1 VH
VL: AVNWYQQLPGKAPKLLIYAAVRCPRILMRCKQDSDCLAGCVCGPNGFCGTPSGIPERFSGSIDRSTNSASLTISGLKTEDEADYYCQSYDSSNLNWVFGGGTKLTVLG

% reduction in binding signal (trypsin [2]): 100%
trypsin binding signal (FU) (trypsin [3]): 43300 FU
B4: KB_C07 (scFv, V domains shown)
VH: B1 VH
VL: AVNWYQQLPGKAPKLLIYAAVGCPRILMRCKQDSDCLAGCVCGPNGFCGSASGVSDRFSGSKSGTSASLAISGLRSEDEADYYCASWDDSLRGYVFGTGTKVTVLG

% reduction in binding signal (trypsin [2]): 100%
trypsin binding signal (FU) (trypsin [3]): 38800 FU
B5: KB_A10 (scFv, V domains shown)
VH: B1 VH
VL: AVNWYQQLPGKAPKLLIYAAGGCPRILMRCKQDSDCLAGCVCGPNGFCGSNSGVPDRFSGSKSGNTASLTISGLQSEDEADYYCAAWDDSLSGVVFGGGTQLTVLG

TRF signal for 0.6 ug/mL Fab (trypsin [1]): 48900
TRF signal for 2.4 ug/mL Fab (trypsin [1]): 141000
TRF signal for 10 ug/mL Fab (trypsin [1]): 212000
B6: KB_A11 Fab (Fab, V domains shown)
VH: B1 VH
VL: YLNWYQQKPGKAPKLLIYAAEICPRILMRCKQDSDCLAGCVCGPNGFCGPSSGIPARFSGSGYGTDFTLTINNIESEDAAYYFCLQHDNFPYTFGQGTKVEIKR

% reduction in binding signal (trypsin [2]): 93%
trypsin binding signal (FU) (trypsin [3]): 20200 FU
B7: KB_A01 (scFv, V domains shown)
VH: B1 VH
VL: B1 VL

TRF signal for 0.6 ug/mL Fab (trypsin [1]): 14600
TRF signal for 2.4 ug/mL Fab (trypsin [1]): 71900
TRF signal for 10 ug/mL Fab (trypsin [1]): 68700
B8: KB_A10 Fab (Fab, V domains shown)
VH: B1 VH
VL: B5 VL

% reduction in binding signal (trypsin [2]): 100%
trypsin binding signal (FU) (trypsin [3]): 76800 FU
B9: KB_C08 (scFv, V domains shown)
VH: B1 VH
VL: B2 VL with D21A, K22V, G50T, G51R, S68F, T86A, N90S, N92S

% reduction in binding signal (trypsin [2]): 96%
trypsin binding signal (FU) (trypsin [3]): 183000 FU
B10: KB_A02 (scFv, V domains shown)
VH: B1 VH
VL: AVNWYQQLPGKAPKLLIYAAAKCPRILMRCKQDSDCLAGCVCGPNGFCGGASGVSDRFSGSIDSSSNSASLTISGLKPEDEGDYYCQSYDSSNRWVFGGGTKVTVLG

TRF signal for 0.6 ug/mL Fab (trypsin [1]): 21000
TRF signal for 2.4 ug/mL Fab (trypsin [1]): 84100
TRF signal for 10 ug/mL Fab (trypsin [1]): 161000
B11: KB_A09 Fab (Fab, V domains shown)
VH: B1 VH
VL: AVNWYQQLPGKAPKLLIYAAERCPRILMRCKQDSDCLAGCVCGPNGFCGTPSGVPDRFSGSIDTFSNSASLTISGLKTEDEADYYCQSYDSSHHWVFGGGTKLTVLG

TRF signal for 0.6 ug/mL Fab (trypsin [1]): 93800
TRF signal for 2.4 ug/mL Fab (trypsin [1]): 221000
TRF signal for 10 ug/mL Fab (trypsin [1]): 255000
B12: KB_A02 Fab (Fab, V domains shown)
VH: B1 VH
VL: B10 VL

% reduction in binding signal (trypsin [2]): 98%
trypsin binding signal (FU) (trypsin [3]): 116000 FU
B13: KB_B02 (scFv, V domains shown)
VH: B1 VH
VL: B5 VL with G21V, S50T, N51G, V54I, D56E, S76A, A80G, V94P, Q101K

TRF signal for 0.6 ug/mL Fab (trypsin [1]): 2340
TRF signal for 2.4 ug/mL Fab (trypsin [1]): 15900
TRF signal for 10 ug/mL Fab (trypsin [1]): 56600
B14: KB_B02 Fab (Fab, V domains shown)
VH: B1 VH
VL: B5 VL with G21V, S50T, N51G, V54I, D56E, S76A, A80G, V94P, Q101K

TRF signal for 0.6 ug/mL Fab (trypsin [1]): 41700
TRF signal for 2.4 ug/mL Fab (trypsin [1]): 146000
TRF signal for 10 ug/mL Fab (trypsin [1]): 238000
B15: KB_C10 Fab (Fab, V domains shown)
VH: B1 VH
VL: AVNWYQQLPGKAPKLLIYAAGPCPRILMRCKQDSDCLAGCVCGPNGFCGADSGVSDRFSGSKSGTSASLAITGLQAEDEGDYYCAAWDDSLNGLVFGGGTKVTVLG

% reduction in binding signal (trypsin [2]): 100%
trypsin binding signal (FU) (trypsin [3]): 89400 FU
B16: KB_C09 (scFv, V domains shown)
VH: B1 VH
VL: B11 VL with E21G, T50G, P51G, T64S, F65S, K77R, T78A, H93N

TRF signal for 0.6 ug/mL Fab (trypsin [1]): 108000
TRF signal for 2.4 ug/mL Fab (trypsin [1]): 201000
TRF signal for 10 ug/mL Fab (trypsin [1]): 226000
B17: KB_A07 Fab (Fab, V domains shown)
VH: B1 VH
VL: YLNWYQQKPGKAPKLLIYAAGVCPRILMRCKQDSDCLAGCVCGPNGFCGSRSGVPSRFSGSGSGTDFTLTISSLQPEDFATYYCQQGASPPYTFGQGTKVEIKR

TRF signal for 0.6 ug/mL Fab (trypsin [1]): 54800
TRF signal for 2.4 ug/mL Fab (trypsin [1]): 153000
TRF signal for 10 ug/mL Fab (trypsin [1]): 257000
B18: KB_B01 Fab (Fab, V domains shown)
VH: B1 VH
VL: B4 VL with V21A, S50T, A51R, S86A, G93A, V102L

% reduction in binding signal (trypsin [2]): 100%
trypsin binding signal (FU) (trypsin [3]): 16400 FU
B19: KB_A11 (scFv, V domains shown)
VH: B1 VH
VL: B6 VL

% reduction in binding signal (trypsin [2]): 100%
trypsin binding signal (FU) (trypsin [3]): 24400 FU
B20: KB_A06 (scFv, V domains shown)
VH: B1 VH
VL: B3 VL

% reduction in binding signal (trypsin [2]): 90%
trypsin binding signal (FU) (trypsin [3]): 28700 FU
B21: KB_A03 (scFv, V domains shown)
VH: B1 VH
VL: AVNWYQQLPGKAPKLLINAADRCPRILMRCKQDSDCLAGCVCGPNGFCGTNSGVPDRFSGSSSGNTASLTITGAQAEDEADYYCNSRDSSGNNWVFGGGTKVTVLG

% reduction in binding signal (trypsin [2]): 100%
trypsin binding signal (FU) (trypsin [3]): 57700 FU
B22: KB_A09 (scFv, V domains shown)
VH: B1 VH
VL: B11 VL

% reduction in binding signal (trypsin [2]): 95%
trypsin binding signal (FU) (trypsin [3]): 57700 FU
B23: KB_B01 (scFv, V domains shown)
VH: B1 VH
VL: B4 VL with V21A, S50T, A51R, S86A, G93A, V102L

TRF signal for 0.6 ug/mL Fab (trypsin [1]): 153000
TRF signal for 2.4 ug/mL Fab (trypsin [1]): 247000
TRF signal for 10 ug/mL Fab (trypsin [1]): 276000
B24: KB_C07 Fab (Fab, V domains shown)
VH: B1 VH
VL: B4 VL

TRF signal for 0.6 ug/mL Fab (trypsin [1]): 46800
TRF signal for 2.4 ug/mL Fab (trypsin [1]): 205000
TRF signal for 10 ug/mL Fab (trypsin [1]): 289000
B25: KB_C09 Fab (Fab, V domains shown)
VH: B1 VH
VL: B11 VL with E21G, T50G, P51G, T64S, F65S, K77R, T78A, H93N

TRF signal for 0.6 ug/mL Fab (trypsin [1]): 51100
TRF signal for 2.4 ug/mL Fab (trypsin [1]): 131000
TRF signal for 10 ug/mL Fab (trypsin [1]): 183000
B26: KB_C08 Fab (Fab, V domains shown)
VH: B1 VH
VL: B2 VL with D21A, K22V, G50T, G51R, S68F, T86A, N90S, N92S
